# According to article PMC3048825:
# How the values were obtained:
# [1] = molecular target: trimerization domain (TD) of human collagen XVIII, XVIII(TD) (human) (UniProt P39060); assay: AUC
# [2] = molecular target: trimerization domain (TD) of human collagen XVIII, XVIII(TD) (human) (UniProt P39060); assay: cross-linking
# [3] = molecular target: trimerization domain of human type XV collagen, XV(TD) (human); assay: SEC
stoichiometry N [1],stoichiometry N [2],stoichiometry N [3],Substance
2.98,3,,"trimerization domain (TD) of human collagen XVIII, XVIII(TD) (from UniProt P39060 1442-1496) (domain or fragment)"
,,3,"trimerization domain of human type XV collagen, XV(TD) (domain or fragment)"
